Among the data in publication PMC5498027 are response (fraction Kif5A bound) values, retold here.

Numbering of substitutions follows the chain as printed. Names and notes keep the numbering of the source.

B1: human Kif5A, first 560 amino acids, wild type, fused to EGFP and a C-terminal 6xHIS tag, Q12840 S203C (protein)
chain: MAETNNECSIKVLCRFRPLNQAEILRGDKFIPIFQGDDSVVIGGKPYVFDRVFPPNTTQEQVYHACAMQIVKDVLAGYNGTIFAYGQTSSGKTHTMEGKLHDPQLMGIIPRIARDIFNHIYSMDENLEFHIKVSYFEIYLDKIRDLLDVTKTNLSVHEDKNRVPFVKGCTERFVSSPEEILDVIDEGKSNRHVAVTNMNEHSCRSHSIFLINIKQENMETEQKLSGKLYLVDLAGSEKVSKTGAEGAVLDEAKNINKSLSALGNVISALAEGTKSYVPYRDSKMTRILQDSLGGNCRTTMFICCSPSSYNDAETKSTLMFGQRAKTIKNTASVNLELTAEQWKKKYEKEKEKTKAQKETIAKLEAELSRWRNGENVPETERLAGEEAALGAELCEETPVNDNSSIVVRIAPEERQKYEEEIRRLYKQLDDKDDEINQQSQLIEKLKQQMLDQEELLVSTRGDNEKVQRELSHLQSENDAAKDEVKEVLQALEELAVNYDQKSQEVEEKSQQNQLLVDELSQKVATMLSLESELQRLQEVSGHQRKRIAEVLNGLMKDLSE
B2: human Kif5A, first 560 amino acids, wild type, fused to EGFP and a C-terminal 6xHIS tag, Q12840 R204W (protein)
chain: B1 chain with C203S, R204W
B3: human Kif5A, first 560 amino acids, wild type, fused to EGFP and a C-terminal 6xHIS tag, Q12840 M198T (protein)
chain: B1 chain with M198T, C203S
B4: human Kif5A, first 560 amino acids, wild type, fused to EGFP and a C-terminal 6xHIS tag, Q12840 R204Q (protein)
chain: B1 chain with C203S, R204Q
B5: human Kif5A, first 560 amino acids, wild type, fused to EGFP and a C-terminal 6xHIS tag, Q12840 S202N (protein)
chain: B1 chain with S202N, C203S
B6: human Kif5A, first 560 amino acids, wild type, fused to EGFP and a C-terminal 6xHIS tag, Q12840 E251K (protein)
chain: B1 chain with C203S, E251K

The first test deals with T1, taxol-stabilized microtubules polymerized from bovine brain tubulin, Q6B856. The test is described as follows: MT pelleting assay (western blot densitometry), fitted curve. To be noted: chain shown with the change; 5 mM AMPPNP; fitted curve read at 8 µM tubulin; parent: est. 0.95; read off a plot. In general terms: In western blotting, separated proteins are transferred to a membrane and probed.
T1 sequence (chain, as listed by the source, chain 1 of 2): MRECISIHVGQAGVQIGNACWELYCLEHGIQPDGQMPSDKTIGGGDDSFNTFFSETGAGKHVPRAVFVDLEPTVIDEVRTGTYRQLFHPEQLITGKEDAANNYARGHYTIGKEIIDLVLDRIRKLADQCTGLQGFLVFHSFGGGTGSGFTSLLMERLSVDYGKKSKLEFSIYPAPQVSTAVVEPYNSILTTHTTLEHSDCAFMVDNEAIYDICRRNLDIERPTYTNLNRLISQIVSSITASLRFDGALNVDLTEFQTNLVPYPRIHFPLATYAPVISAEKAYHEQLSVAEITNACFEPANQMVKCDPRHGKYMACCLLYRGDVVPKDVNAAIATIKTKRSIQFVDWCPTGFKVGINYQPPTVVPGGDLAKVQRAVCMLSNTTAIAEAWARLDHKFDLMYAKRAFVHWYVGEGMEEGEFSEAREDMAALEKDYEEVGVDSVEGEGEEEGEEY
T1 sequence (Q6B856 whole entry, chain 2 of 2): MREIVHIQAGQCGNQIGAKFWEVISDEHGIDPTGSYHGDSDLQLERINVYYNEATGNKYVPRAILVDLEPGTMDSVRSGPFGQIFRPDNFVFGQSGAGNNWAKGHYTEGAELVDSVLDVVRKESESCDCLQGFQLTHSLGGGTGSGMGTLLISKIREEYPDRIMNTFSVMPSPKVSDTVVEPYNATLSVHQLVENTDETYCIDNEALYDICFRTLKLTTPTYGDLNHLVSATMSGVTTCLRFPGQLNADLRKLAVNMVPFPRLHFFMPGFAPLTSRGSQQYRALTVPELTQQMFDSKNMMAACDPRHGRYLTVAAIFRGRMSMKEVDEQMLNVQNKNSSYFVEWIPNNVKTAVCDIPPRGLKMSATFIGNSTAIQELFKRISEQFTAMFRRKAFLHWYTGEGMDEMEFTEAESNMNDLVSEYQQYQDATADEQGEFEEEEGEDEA
As for B1, the response (fraction Kif5A bound) was found to be 0.86.

For B2, the response (fraction Kif5A bound) is 0.47.

For the molecule B3, the response (fraction Kif5A bound) turned out to be 1.

On to B4, for which the response (fraction Kif5A bound) amounted to 0.79.

As to B5, the response (fraction Kif5A bound) came out at 1.

In the case of B6, the response (fraction Kif5A bound) came out at 0.74.

The next test concerns the target T1, taxol-stabilized microtubules …. The experiment in a line: MT pelleting assay (western blot densitometry). To be noted: chain shown with the change; 5 mM AMPPNP; 2 µM tubulin; read off a plot.
Consider B1, for which the response (fraction Kif5A bound) worked out at 0.7.

B2 showed a response (fraction Kif5A bound) of 0.44.

With B3, the response (fraction Kif5A bound) was found to be 0.94.

The molecule B4 registered a response (fraction Kif5A bound) of 0.8.

Consider B5, for which the response (fraction Kif5A bound) was 0.9.

Molecule B6 yielded a response (fraction Kif5A bound) of 0.56.

Still in this test, the particulars now being: chain shown with the change; 5 mM AMPPNP; 4 µM tubulin; read off a plot.
B1 yielded a response (fraction Kif5A bound) of 0.83.

In turn, B2 came in with a response (fraction Kif5A bound) of 0.41.

Molecule B3 registered a response (fraction Kif5A bound) of 0.95.

As for B4, the response (fraction Kif5A bound) was determined as 0.73.

Turning to B5, the response (fraction Kif5A bound) came out at 0.91.

B6 came in with a response (fraction Kif5A bound) of 0.63.

The same test, now with this note: chain shown with the change; 5 mM AMPPNP; 8 µM tubulin; read off a plot.
B1 had a response (fraction Kif5A bound) of 0.8.

Consider B2, for which the response (fraction Kif5A bound) is 0.36.

As for B3, the response (fraction Kif5A bound) was 0.94.

With B4, the response (fraction Kif5A bound) came out at 0.76.

Molecule B5 came in with a response (fraction Kif5A bound) of 0.95.

B6 yielded a response (fraction Kif5A bound) of 0.73.
